{
  "source": "paper PMC4634852",
  "molecular_target": "Spindle-F (Spn-F) (UniProt Q9V9Y9)",
  "assay": "anti-FLAG co-IP of differently tagged Spn-F",
  "settings": "reference: wild-type Spn-F with Ik2; sites S53,S85,S172,S202,S264,S270,S325,S349",
  "data": [
    {"substance": "Spindle-F (Spn-F) (from UniProt Q9V9Y9) SpnF-8A with Ik2", "values": [
      {"measurement": "binding against the reference", "value": "stronger"}
    ]}
  ]
}
